Reference: patent CN117136070A (CELLDEX THERAPEUTICS INC, dated 2023)

Legend:
[1] = target: T1, 重组人FcrRIIb (human, UniProt P31994 43-217, limits assumed); test: BLI, His-tagged Fc receptor captured on anti-penta-His biosensor, antibody in solution
T1 construct: Recombinant, histidine-tagged, captured on anti-penta-His biosensor; also called FcγRIIb; not shown: histidine tag
T1 sequence (looked up): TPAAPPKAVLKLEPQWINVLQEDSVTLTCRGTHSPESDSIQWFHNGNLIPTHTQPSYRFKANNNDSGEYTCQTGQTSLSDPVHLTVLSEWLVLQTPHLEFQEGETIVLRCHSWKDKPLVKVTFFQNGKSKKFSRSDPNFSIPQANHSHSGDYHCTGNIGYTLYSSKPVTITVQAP

[2] = target: KIT (野生型KIT, M-07e细胞) (UniProt P10721 26-976, limits assumed); test: cell-based or functional assay
[3] = target: T2, 重组人FcrRIIa (human, UniProt P12318 36-218, limits assumed); test: BLI, His-tagged Fc receptor captured on anti-penta-His biosensor, antibody in solution
T2 construct: Recombinant, histidine-tagged, captured on anti-penta-His biosensor; also called FcγRIIa; not shown: histidine tag
T2 sequence (looked up): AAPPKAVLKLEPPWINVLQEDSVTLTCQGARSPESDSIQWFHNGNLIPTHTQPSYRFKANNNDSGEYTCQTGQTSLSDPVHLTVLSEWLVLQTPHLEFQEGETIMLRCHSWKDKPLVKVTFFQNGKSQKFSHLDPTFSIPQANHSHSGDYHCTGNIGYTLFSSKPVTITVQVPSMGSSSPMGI

[4] = target: T3, 重组人FcrRIIIa (human, UniProt P08637 17-208); test: as above
T3 construct: Recombinant, histidine-tagged, captured on anti-penta-His biosensor; also called FcγRIIIa; not shown: histidine tag

[5] = target: T4, 重组人FcrRI (human, UniProt P12314 16-288, limits assumed); test: as above
T4 construct: Recombinant, histidine-tagged, captured on anti-penta-His biosensor; also called FcγRI; FcgRI; not shown: histidine tag

[6] = target: T5, 重组人FcrRIIIb (human, UniProt O75015 17-200); test: as above
T5 construct: Recombinant, histidine-tagged, captured on anti-penta-His biosensor; also called FcγRIIIb; not shown: histidine tag
T5 sequence (O75015 17-200 limits assumed): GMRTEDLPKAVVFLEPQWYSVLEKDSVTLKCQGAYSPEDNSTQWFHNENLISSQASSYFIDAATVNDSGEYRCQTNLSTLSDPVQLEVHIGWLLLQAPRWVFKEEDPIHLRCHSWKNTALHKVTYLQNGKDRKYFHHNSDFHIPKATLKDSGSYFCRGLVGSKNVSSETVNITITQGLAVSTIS

Sequence of KIT (野生型KIT, M-07e细胞) (P10721 26-976 limits assumed): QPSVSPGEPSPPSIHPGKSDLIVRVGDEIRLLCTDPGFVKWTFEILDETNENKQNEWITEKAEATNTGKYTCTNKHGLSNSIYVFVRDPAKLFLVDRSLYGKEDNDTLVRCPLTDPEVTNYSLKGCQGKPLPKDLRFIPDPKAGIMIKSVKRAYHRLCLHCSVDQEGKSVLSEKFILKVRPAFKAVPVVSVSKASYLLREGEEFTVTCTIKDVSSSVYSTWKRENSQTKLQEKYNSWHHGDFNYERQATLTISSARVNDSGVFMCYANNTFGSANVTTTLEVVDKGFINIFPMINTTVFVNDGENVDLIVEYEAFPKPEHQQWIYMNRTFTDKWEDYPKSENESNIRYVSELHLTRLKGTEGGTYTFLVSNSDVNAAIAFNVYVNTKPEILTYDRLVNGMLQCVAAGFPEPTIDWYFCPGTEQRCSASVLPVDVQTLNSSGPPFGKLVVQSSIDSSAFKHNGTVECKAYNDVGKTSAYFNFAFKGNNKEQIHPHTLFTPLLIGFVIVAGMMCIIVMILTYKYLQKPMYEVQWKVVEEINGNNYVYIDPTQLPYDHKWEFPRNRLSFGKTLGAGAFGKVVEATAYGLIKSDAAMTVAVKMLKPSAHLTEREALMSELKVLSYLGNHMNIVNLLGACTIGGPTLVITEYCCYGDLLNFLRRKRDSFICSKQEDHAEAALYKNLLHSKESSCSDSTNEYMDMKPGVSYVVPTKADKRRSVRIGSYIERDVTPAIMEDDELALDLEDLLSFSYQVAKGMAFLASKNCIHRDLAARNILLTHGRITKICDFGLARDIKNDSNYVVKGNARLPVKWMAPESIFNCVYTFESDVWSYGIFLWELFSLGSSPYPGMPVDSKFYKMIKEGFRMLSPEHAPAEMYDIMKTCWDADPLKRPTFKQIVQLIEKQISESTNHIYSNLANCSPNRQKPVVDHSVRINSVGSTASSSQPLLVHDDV
T4 sequence (P12314 16-288 limits assumed): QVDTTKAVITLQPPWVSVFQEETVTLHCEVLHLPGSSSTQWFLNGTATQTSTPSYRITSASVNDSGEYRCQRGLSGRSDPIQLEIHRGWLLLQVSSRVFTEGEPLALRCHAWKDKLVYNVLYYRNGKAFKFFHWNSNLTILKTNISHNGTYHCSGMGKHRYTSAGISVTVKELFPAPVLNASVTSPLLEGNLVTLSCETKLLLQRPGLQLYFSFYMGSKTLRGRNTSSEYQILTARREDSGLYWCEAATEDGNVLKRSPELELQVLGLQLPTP
T3 sequence (P08637 17-208 limits assumed): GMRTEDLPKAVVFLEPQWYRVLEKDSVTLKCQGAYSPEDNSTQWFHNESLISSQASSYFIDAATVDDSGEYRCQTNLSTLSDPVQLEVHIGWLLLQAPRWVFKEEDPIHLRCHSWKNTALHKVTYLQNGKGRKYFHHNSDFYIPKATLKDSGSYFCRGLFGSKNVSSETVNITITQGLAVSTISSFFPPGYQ

Binder | binding result [1] | SCF-依赖性M-07e细胞增殖的抑制, 平均IC50 [2] | binding result [3] | binding result [4] | binding result [5] | binding result [6]
mAbc (antibody, also called 具有相同可变区序列但是未突变的(野生型)人IgG1序列的相应抗体; 具有野生型(未突变)IgG1 Fc域的相应抗体; copies: 2 + 2) VH: not shown VL: DIVMTQSPSSLSASVGDRVTITCKASQNVRTNVAWYQQKPGKAPKALIYSASYRYSGVPDRFTGSGSGTDFTLTISSLQPEDFADYFCQQYNSYPRTFGGGTKVEIKRTVAAPSVFIFPPSDEQLKSGTASVVCLLNNFYPREAKVQWKVDNALQSGNSQESVTEQDSKDSTYSLSSTLTLSKADYEKHKVYACEVTHQGLSSPVTKSFNRGEC | no binding |  |  |  |  | 
mAb1 (antibody, human IgG1, kappa, also called 抗-KIT抗体mAb1; Fc突变的抗-KIT抗体; copies: 2 + 2) heavy: QVQLVQSGAEVKKPGASVKLSCKASGYTFTDYYINWVRQAPGKGLEWIARIYPGSGNTYYNEKFKGRATLTADKSTSTAYMQLSSLRSEDTAVYFCARGVYYFDYWGQGTTVTVSSASTKGPSVFPLAPSSKSTSGGTAALGCLVKDYFPEPVTVSWNSGALTSGVHTFPAVLQSSGLYSLSSVVTVPSSSLGTQTYICNVNHKPSNTKVDKKVEPKSCDKTHTCPPCPAPEAQGGPSVFLFPPKPKDTLYITREPEVTCVVVDVSHEDPEVKFNWYVDGVEVHNAKTKPREEQYNSTYRVVSVLTVLHQDWLNGKEYKCQVSNKALPAPIEKTISKAKGQPREPQVYTLPPSRDELTKNQVSLTCLVKGFYPSDIAVEWESNGQPENNYKTTPPVLDSDGSFFLYSKLTVDKSRWQQGNVFSCSVMHEALHNHYTQKSLSLSPG light: DIVMTQSPSSLSASVGDRVTITCKASQNVRTNVAWYQQKPGKAPKALIYSASYRYSGVPDRFTGSGSGTDFTLTISSLQPEDFADYFCQQYNSYPRTFGGGTKVEIKRTVAAPSVFIFPPSDEQLKSGTASVVCLLNNFYPREAKVQWKVDNALQSGNSQESVTEQDSKDSTYSLSSTLTLSKADYEKHKVYACEVTHQGLSSPVTKSFNRGEC | no binding (tested: 500nM) | 1.11 nM | no binding (tested: 500nM) | no binding (tested: 500nM) | no binding (tested: 500nM) | no binding (tested: 500nM)
